Patent US20140134176A1 (Pfizer, published 2014)

B1: MOR8457-mIgG1 (antibody)
heavy: EVQLVESGGGLVQPGGSLRLSCAASGFTFSSYAMSWVRQAPGKGLEWVSYISDDGSLKYYADSVKGRFTISRDNSKNTLYLQMNSLRAEDTAVYYCARHPYWYGGQLDLWGQGTLVTVSSAKTTPPSVYPLAPGSAAQTNSVTLGCLVKGYFPEPVTVTWNSGSLSSGVHTFPAVLQSDLYTLSSSVTVPSSTWPSETVTCNVAHPASSTKVDKKIVPRDCGCKPCICTVPEVSSVFIFPPKPKDVLTITLTPKVTCVVVDISKDDPEVQFSWFVDDVEVHTAQTQPREEQFNSTFRSVSELPIMHQDWLNGKEFKCRVNSAAFPAPIEKTISKTKGRPKAPQVYTIPPPKEQMAKDKVSLTCMITDFFPEDITVEWQWNGQPAENYKNTQPIMDTDGSYFVYSKLNVQKSNWEAGNTFTCSVLHEGLHNHHTEKSLSHSPGK
light: SYELTQPPSVSVAPGQTARISCSGDSLGSYFVHWYQQKPGQAPVLVIYDDSNRPSGIPERFSGSNSGNTATLTISGTQAEDEADYYCSAFTHNSDVFGGGTKLTVLQPKSSPSVTLFPPSSEELETNKATLVCTITDFYPGVVTVDWFTKVDGTPVTQGMETTQPSKQSNNKYMASSYLTLTARAWERHSSYSCQVTHEGHTVEFTKSLSRADCS
notes: Original MOR8457 VH + mouse wild type IgG1 constant; original VL + mouse wild type lambda constant
B2: MOR8457-Fab (Fab, V domains shown)
VH: EVQLVESGGGLVQPGGSLRLSCAASGFTFSSYAMSWVRQAPGKGLEWVSYISDDGSLKYYADSVKGRFTISRDNSKNTLYLQMNSLRAEDTAVYYCARHPYWYGGQLDLWGQGTLVTVSS
VL: SYELTQPPSVSVAPGQTARISCSGDSLGSYFVHWYQQKPGQAPVLVIYDDSNRPSGIPERFSGSNSGNTATLTISGTQAEDEADYYCSAFTHNSDVFGGGTKLTVL
notes: Fab format (HuCAL GOLD, expressed in E. coli); also called Fab-MOR8457

Legend:
rat PDGF-BB [1] = target: T1, rat PDGF-BB (rat, UniProt Q05028 74-182); experiment: SPR (Biacore 2000), antibody captured via anti-mouse IgG, PDGF injected; off rate beyond instrument limit
T1 construct: also called ratBB
Description: (§1) Anti-human (A-D, I-K) or anti-mouse (E-H) IgG antibodies were immobilized in flow cells of CM5 sensor chips. 1 μg/mL of MOR8457-IKR-hIgG1-3m (A-D), MOR8457-mIgG1 (E-H) or MOR8457-GL-hIgG1-3m (I-K) was injected independently over the respective anti-human or anti-mouse surface for 10 seconds resulting in a stable anti-PDGF surface between 50-100 RU. Different concentration of PDGF proteins, 0.25, 0.5, and 1 nM, was then injected over the antibody surface for 2 minutes at a flow rate of 100 μl/min for binding. The complex was allowed to dissociate for 10 minutes. The surface was regenerated with a 30 second injection of 10 mM magnesium chloride leaving the surface ready for another round of anti-PDGF antibody capture and PDGF binding kinetics. Each of these three antibodies bound tightly to human (A, E, I), mouse (B, F, J) and rat (C, G, K) PDGF-BB. MOR8457-IKR-hIgG1-3m (D) and MOR8457-mIgG1 (H) bound to human PDGF-AB. Each sensorgram shown is one representative of three independent experiments.
(§2) In order to test the specificity and cross species reactivity, the binding affinities of three MOR8457 IgG variants, MOR8457-IKR-hIgG1-3m, MOR8457-mIgG1, and MOR8457-GL-hIgG1-3m, to different human PDGF ligands, including human PDGF-AA, -AB, -DD, as well as rat PDGF-BB (all obtained from R&D systems, Minneapolis, Minn.) and mouse PDGF-BB (Invitrogen, Carlsbad, Calif.) were tested. Briefly, anti-human or anti-mouse IgG (GE Healthcare) antibodies were immobilized in adjacent flow cells of a CM5 sensor chip between 8000-10,000 resonance units (RU) using amine coupling as directed by the manufacturer. Antibodies were diluted into PBS-NET (10 mM Phosphate pH 7.4, 287 mM NaCl, 2.7 mM KCl, 3.2 mM EDTA, 0.01% Tween 20) to 1 μg/mL and injected independently over the respective anti-human or anti-mouse surface for 10 seconds resulting in a stable anti-PDGF surface between 50-100 RU. PDGF proteins were diluted to 1 nM in PBS-NET and serially diluted two-fold to 0.25 nM. Each concentration of PDGF was then injected over the antibody surface for 2 minutes at a flow rate of 100 μl/min. The complex was allowed to dissociate for 10 minutes. The surface was regenerated with a 30 second injection of 10 mM magnesium chloride leaving the surface ready for another round of anti-PDGF antibody capture and PDGF binding kinetics.

mouse PDGF-BB [2] = target: T2, mouse PDGF-BB (mouse, UniProt P31240 82-190); experiment: as above
T2 construct: also called muBB; Mu PDGF-BB
Description: as §1, §2

human PDGF-BB [3] = target: T3, human PDGF-BB (human, UniProt P01127 82-190); experiment: as above
T3 construct: Recombinant human PDGF-BB homodimer, bought (Biosource PHG0043; R&D Systems); also called hPDGF-BB; huBB
Description: as §1, §2

human PDGF-AB [4] = target: T4, human PDGF-AB (human, UniProt P04085 87-211, limits assumed); experiment: as above
T4 construct: Heterodimer of PDGF-A and PDGF-B, bought; also called huAB; Hu PDGF-AB
Description: as §1, §2

human PDGF-DD = human PDGF-DD (human, UniProt Q9GZP0 250-370, limits assumed); experiment: SPR (Biacore), antibody captured
Description: as §2, with “kinetics. Kinetic data were double referenced (Myszka et al., 1999, J. Mol. Recognit. 12 279) using scrubber2 software (Bio-Logic Software), then fit to a 1:1 binding model using Biacore evaluation software version 4.1. The results shown were an average of three independent binding studies.” for “kinetics.”

human PDGF-AA [5] = target: T5, human PDGF-AA (human, UniProt P04085 87-211, limits assumed); experiment: SPR (Biacore), antibody captured
Description: as §2, with “kinetics. Kinetic data were double referenced (Myszka et al., 1999, J. Mol. Recognit. 12 279) using scrubber2 software (Bio-Logic Software), then fit to a 1:1 binding model using Biacore evaluation software version 4.1. The results shown were an average of three independent binding studies.” for “kinetics.”

rat PDGF-BB [6] = target: T1, rat PDGF-BB; experiment: SPR (Biacore 2000), antibody captured via anti-mouse IgG, PDGF injected
Description: as §1, §2

mouse PDGF-BB [7] = target: T2, mouse PDGF-BB; experiment: as above
Description: as §1, §2

human PDGF-BB [8] = target: T3, human PDGF-BB; experiment: as above
Description: as §1, §2

human PDGF-AB [9] = target: T4, human PDGF-AB; experiment: as above
Description: as §1, §2

human PDGF-BB [10] = target: T3, human PDGF-BB; experiment: SPR (Biacore) competition in solution: MOR8457-mIgG1 serially diluted, mixed with human PDGF-BB, 20 h at 2-8 C, mixture injected over PDGFRβ-hIgG1 captured on anti-human IgG; blocked partner PDGFRβ-hIgG1
Description: MOR8457-mIgG1 was serially diluted in PBS then mixed with […] of human PDGF-BB and incubated for 20 hours at 2-8° C. to reach equilibrium as indicated by the [brackets]. Each MOR8457-mIgG1 and PDGF-BB dilution mixture was then injected over the surface of PDGFRβ-hIgG1 captured by anti-human IgG1 on a CM5 chip. […] Data shown are from one representative experiment of two independent experiments.
Because of the complexity of the 2:1 binding stoichiometry, and also to avoid any potential artifacts introduced by sequential binding on the chip, the competitive binding was further confirmed by neutralizing PDGF-BB with MOR8457 in solution as illustrated by the diagram shown in FIG. 5A. MOR8457-mIgG1 was serially diluted in PBS then mixed with […] of human PDGF-BB and incubated for 20 hours at 2-8° C. to reach equilibrium. Each MOR8457-mIgG1 and PDGF-BB dilution mixture shown between [brackets] in FIG. 5A, was then injected over the surface of PDGFRβ-hIgG1 captured by anti-human IgG1 on a CM5 chip. FIG. 5B depicts a graph showing the concentration response curve of MOR8457 inhibition.

human PDGF-AA [11] = target: T5, human PDGF-AA; experiment: ELISA
human PDGF-BB [12] = target: T3, human PDGF-BB; experiment: cell-based or functional assay

T3 sequence (P01127 82-190 limits assumed): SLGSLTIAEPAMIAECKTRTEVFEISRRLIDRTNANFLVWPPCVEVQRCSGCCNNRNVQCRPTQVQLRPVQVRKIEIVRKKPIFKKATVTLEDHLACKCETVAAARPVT
T1 sequence (Q05028 74-182 limits assumed): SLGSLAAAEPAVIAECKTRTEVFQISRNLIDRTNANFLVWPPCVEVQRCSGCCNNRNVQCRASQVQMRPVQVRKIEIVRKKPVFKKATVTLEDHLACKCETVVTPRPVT
T2 sequence (P31240 82-190 limits assumed): as the sequence (Q05028 74-182 limits assumed) above, with V83I, V102I counted along it
T4 sequence (chain, as listed by the source limits assumed, chain 2 of 2, other chains not shown): as the sequence (P01127 82-190 limits assumed) above
human PDGF-DD, sequence (Q9GZP0 250-370 limits assumed): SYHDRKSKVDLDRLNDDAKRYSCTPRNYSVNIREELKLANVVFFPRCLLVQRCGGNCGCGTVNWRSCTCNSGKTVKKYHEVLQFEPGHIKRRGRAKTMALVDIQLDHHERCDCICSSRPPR

| Binder | Kd (rat PDGF-BB [1]) [nM] | Kd (mouse PDGF-BB [2]) [nM] | Kd (human PDGF-BB [3]) [nM] | Kd (human PDGF-AB [4]) [nM] | binding result (human PDGF-DD) | binding result (human PDGF-AA [5]) | kon (rat PDGF-BB [6]) [M⁻¹ s⁻¹] | kon (mouse PDGF-BB [7]) [M⁻¹ s⁻¹] | kon (human PDGF-BB [8]) [M⁻¹ s⁻¹] | kon (human PDGF-AB [9]) [M⁻¹ s⁻¹] | IC50 (read off the curve) (human PDGF-BB [10]) [nM] | binding result (human PDGF-AA [11]) | IC50, inhibition of PDGF-BB-induced PDGF-Rβ Tyr751 phosphorylation (PAE PDGF-Rβ cells) (human PDGF-BB [12]) [nM] |
| --- | --- | --- | --- | --- | --- | --- | --- | --- | --- | --- | --- | --- | --- |
| B1 | < 0.01 | < 0.01 | < 0.01 | < 0.01 | no binding (tested: 0.25-1 nM PDGF) | no binding (tested: 0.25-1 nM PDGF) | 1.42e+07 | 2.48e+07 | 1.12e+07 | 5.9e+06 | ~0.04 | – | – |
| B2 | – | – | – | – | – | – | – | – | – | – | – | no binding | 0.32 |
